From US20220267440A1 (ABSOS, published 2022)

What was measured:
[1] = molecular target: T1, human CD47 extracellular domain with a histidine- (HIS-) tag (Sino Biological, China) (human, UniProt Q08722 19-139); experiment: competition ELISA on huCD47, row G1 Alone
T1 construct: extracellular domain; also called huCD47; huCD47 protein (Sino Biological, China 10161-H08H); not shown: histidine tag

[2] = molecular target: T1, human CD47 extracellular domain with a …; experiment: competition ELISA on huCD47 after 27A
Method: (§1) A competition ELISA was performed to establish competitive binding bins. […] After washing, wells were incubated with an AlivaMab monoclonal antibody representing one of seven unique competition bins. After 1 hour the wells were washed and incubated with individual clonal anti-huCD47 AlivaMab hybridoma supernatants. […] Individual AlivaMab Mouse antibodies that were unable to bind in the presence of a mouse antibody are considered to be in the same epitope bin as that particular mouse antibody.

[3] = molecular target: T2, recombinant human CD47 (Novoprotein cat no. C321, lot no. 0329689) (human, UniProt Q08722 19-139); experiment: SPR summary table, 25 C
T2 construct: Bought reagent
Method: (§2) Binding kinetics were measured at 25° C. using a BioRad ProteOn XPR36 optical biosensor equipped with GLM sensor chips and equilibrated with running buffer (HBS, 0.005% TWEEN-20, 0.1 mg/mL BSA, pH 7.4).
(§3) CD47 was tested in a three-fold dilution series starting at 100 nM.

[4] = molecular target: T3, recombinant CD47-Fc (Sino Biologics) (human, UniProt Q08722 19-139); experiment: competition ELISA: HIS-tagged SIRP α binding to plate-bound CD47-Fc, antibody titrated
T3 construct: Bought reagent; also called human CD47-Fc; not shown: Fc

[5] = molecular target: T2, recombinant human CD47 (Novoprotein cat …); experiment: SPR (ProteOn XPR36), mAb captured on anti-mouse Fc, CD47 as analyte, 25 C, 1:1 model
Method: as §2, §3

[6] = molecular target: T1, human CD47 extracellular domain with a …; experiment: competition ELISA on huCD47 after 10A; cross-hatched cell
Method: as §1

[7] = molecular target: T1, human CD47 extracellular domain with a …; experiment: competition ELISA on huCD47 after 10A
Method: as §1

[8] = molecular target: T1, human CD47 extracellular domain with a …; experiment: competition ELISA on huCD47 after 35A
Method: as §1

[9] = molecular target: T1, human CD47 extracellular domain with a …; experiment: competition ELISA on huCD47 after 141A
Method: as §1

[10] = molecular target: T1, human CD47 extracellular domain with a …; experiment: competition ELISA on huCD47 after 156A
Method: as §1

[11] = molecular target: T1, human CD47 extracellular domain with a …; experiment: competition ELISA on huCD47 after 1A
Method: as §1

B1: anti-CD47 AlivaMab antibody 107 (antibody, IgG1, V domains shown)
VH: QVQLQESGPGLMKPSETLSLTCTVSGGSISSYYWTWIRQPPGKGLEWIGYIYYSGSTNYNPSLKSRVTISVDTSKNQFSLKLSSVTAADTAVYYCARGRGALTAWGQGTLVTVSS
VL: DIQLTQSPSFLSASVGDRVTITCRASQDIGSYLAWCQQKPGKAPKLLIYAASTLQGGVPSRFSGSGSGTEFTLTISSLQPEDFATYYCQQLNSYPLTFGGGTKVEIK
notes: Chimeric AlivaMab Mouse mAb from hybridoma: human V, CH1 and upper hinge, mouse middle hinge, CH2 and CH3, human kappa light chain
competition matrix cell (no name or unit printed) [1]: 100 | competition matrix cell (no name or unit printed) [2]: 106 | Kd [3]: 0.16 nM | koff [3]: 0.00093 s⁻¹ | kon [3]: 5.7e+06 M⁻¹ s⁻¹ | IC50 [4]: 2.7 nM | Kd [5]: 0.163 nM | koff [5]: 0.00093 s⁻¹ | kon [5]: 5.7e+06 M⁻¹ s⁻¹ | competition matrix cell (no name or unit printed) [6]: 85 | competition matrix cell (no name or unit printed) [7]: 100

B2: anti-CD47 AlivaMab antibody 90 (antibody, IgG1, V domains shown)
VH: QVQLQESGPGLVKPSETLSLTCTVSGGSINNYYWSWIRQPPGKGLEWIGYIYYSGSTNYHPSLKSRVTISVDTSKNQFSLKLTSVTAADTAVFYCARGRRALTAWGQGTLVTVSS
VL: DIQVTQSPSFLSASVGDRVTITCRASQGISSYLAWYQQKPGKAPKLLIYAASTLQSGVPSRFSGSGSGTEFTLTISSLQPEDFATYYCQQLNSYPLTFGGGTKMEIK
notes: Chimeric AlivaMab Mouse mAb from hybridoma: human V, CH1 and upper hinge, mouse middle hinge, CH2 and CH3, human kappa light chain; also called clone 90; mAb 90
IC50 [4]: 53.6 nM

B3: anti-CD47 AlivaMab antibody 91 (antibody, IgG1, V domains shown)
VH: QVQLQESGPGLVKPSETLSLTCTVSGGSISTYYWSWIRQPPGKGLEWIGYIYYSGTTNYNPSLKSRVTISVDTSKNQFSLKLSSVTAADTAVYYCARKRDAFDIWGQGTMVTVSS
VL: EIVLTQSPGTLSLSPGERATLSCRASQSVSSTYLAWSQQKPGQAPRLLIYGASSRATGIPDRFSGSGSGTDFTLTISRLEPEDFAVYYCQQYGSSRTFGQGTKVEIK
notes: Chimeric AlivaMab Mouse mAb from hybridoma: human V, CH1 and upper hinge, mouse middle hinge, CH2 and CH3, human kappa light chain; also called clone 91; mAb 91
Kd [3]: 0.15 nM | koff [3]: 0.00111 s⁻¹ | kon [3]: 7.2e+06 M⁻¹ s⁻¹ | IC50 [4]: 2.1 nM | Kd [5]: 0.154 nM | koff [5]: 0.00111 s⁻¹ | kon [5]: 7.2e+06 M⁻¹ s⁻¹

B4: anti-CD47 AlivaMab antibody 164 (antibody, IgG1, V domains shown)
VH: QVQLQESGPGLVKPSETLSLTCTVSGGSISSYYWSWIRQPPGKGLEWIGYVYYSGGTNYNPSLKSRVTISVDTSKNQFSLKLSSVTAADTAVYYCARKRGTFDYWGQGTLVTVSS
VL: DIQMTQSPSSVSASVGDRVTITCRASQGISSWLAWYQQKPGKAPKLLIYAASSLQSGVPSRFSGSGSGTDFTLTISSLQPEDFATYFCQQANSFPLTFGGGTKVEIK
notes: Chimeric AlivaMab Mouse mAb from hybridoma: human V, CH1 and upper hinge, mouse middle hinge, CH2 and CH3, human kappa light chain; also called clone 164; mAb 164
competition matrix cell (no name or unit printed) [8]: 117 | competition matrix cell (no name or unit printed) [1]: 100 | competition matrix cell (no name or unit printed) [2]: 108 | competition matrix cell (no name or unit printed) [9]: 100 | competition matrix cell (no name or unit printed) [10]: 120 | IC50 [4]: 4.8 nM | competition matrix cell (no name or unit printed) [11]: 103 | competition matrix cell (no name or unit printed) [7]: 97

B5: anti-CD47 AlivaMab antibody 144 (antibody, IgG1, V domains shown)
VH: QVQLQESGPGLVKPSETLSLTCTVSGGSISSYYWSWIRQPPGKGLEWIGYIYYSGTTNYNPSLKSRVTISVDTSKNQFSLKLSSVTAADTAVYYCARKRGEFDYWGQGTLVTVSS
VL: DIQMTQSPSSVSASEGDRVTITCRASQGISRWLAWYQQKPGKAPKLLIYAASSLQSGVPSRFSGSGSGTDFTLTISSLQPEDFATYYCQQANSFPLTFGGGTKVEIK
notes: Chimeric AlivaMab Mouse mAb from hybridoma: human V, CH1 and upper hinge, mouse middle hinge, CH2 and CH3, human kappa light chain; also called clone 144; mAb 144
IC50 [4]: 10 nM

B6: anti-CD47 AlivaMab antibody 10 (antibody, IgG2a, V domains shown)
VH: QVQLQESGPGLVKPSETLSLTCTVSGGSIRTYYWSWIRQPPGKGLEWIGYIYYSGSTNYNPSLKSRVTISVDTSKNQFSLKLSSVTAADTAVYYCARKKGAFDIWGQGTMVTVSS
VL: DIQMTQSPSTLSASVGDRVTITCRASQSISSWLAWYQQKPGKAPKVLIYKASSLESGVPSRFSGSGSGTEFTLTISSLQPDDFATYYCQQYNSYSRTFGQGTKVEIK
notes: Chimeric AlivaMab Mouse mAb from hybridoma: human V, CH1 and upper hinge, mouse middle hinge, CH2 and CH3, human kappa light chain; also called clone 10; mAb 10
IC50 [4]: 4.7 nM

B7: anti-CD47 AlivaMab antibody 87 (antibody, IgG1, V domains shown)
VH: QVQLQESGPGLVKPSETLSLTCTVSGGSISSYYWSWIRQPPGKGLEWIGYIYYSGSTNYNPSLKSRVTISVDTSKNQFSLKLNSVTAADTAVYYCARKRAFLDYWGQGTLVTVSS
VL: DIQMTQSPSSLSASVGDRVTITCRASQGISNYLAWFQQKPGKAPKSLIYAASSLQGGVPSKFSGSGSGTDFTLTISSLQPEDFATYYCQQYNSYPLTFGGGTKVEIK
notes: Chimeric AlivaMab Mouse mAb from hybridoma: human V, CH1 and upper hinge, mouse middle hinge, CH2 and CH3, human kappa light chain; also called clone 87; mAb 87
IC50 [4]: 3 nM

B8: anti-CD47 AlivaMab antibody 101 (antibody, IgG1, V domains shown)
VH: QVQLQESGPGLVKPSETLSLTCTVSGGSISFYYWTWIRQPPGKGLEWIGFIYYSGSTNYNPSLKSRVTISVDTSKNQFSLKLSSVTAADTAVYYCARGRGALTAWGQGTLVTVSS
VL: not shown
notes: as for B1
competition matrix cell (no name or unit printed) [1]: 100 | IC50 [4]: 15 nM | competition matrix cell (no name or unit printed) [6]: 61 | competition matrix cell (no name or unit printed) [7]: 92

B9: anti-CD47 AlivaMab antibody 153 (antibody, IgG1, V domains shown)
VH: QVQLQESGPGLVKPSETLSLTCTVSGGSINYYYWSWIRQPPGKGLEWIGYIYYSGSTNYNPSLKSRVTISVDTSKNQFSLKLSSVTAADTAVYYCARKRSSYDYWGQGTLVTVSS
VL: DIQMTQSPSAMSASVGDRVTITCRASQGISNYLAWFQQKPGKVPRRLIYAASSLQSGVPSRFSGSGSGTEFTLTISSLQPEDFATYYCLQHNSYPWTFGQGTKVEIK
notes: Chimeric AlivaMab Mouse mAb from hybridoma: human V, CH1 and upper hinge, mouse middle hinge, CH2 and CH3, human kappa light chain; also called clone 153; mAb 153
IC50 [4]: 27.9 nM

B10: anti-CD47 AlivaMab antibody 5 (antibody, IgG1, V domains shown)
VH: QVQLQESGPGLVKPSETLSLTCTVSGGSISSYYWSWIRQPPGKGLEWIGYIYYSGSTNYNPSLKSRVTISVDTSKNQFSLKLSSVTAADTAVYYCARGKGGTDYWGQGTLVTVSS
VL: DIQMTQSPSSVSASVGDRVTITCRASQGISSWLAWYQQKPGKAPKLLIYAASSLQSGVPSRFSGSGSGTDFTLTISSLQPEDFATYYCQQANSFPRTFGQGTKVEIK
notes: Chimeric AlivaMab Mouse mAb from hybridoma: human V, CH1 and upper hinge, mouse middle hinge, CH2 and CH3, human kappa light chain; also called clone 5; mAb 5
competition matrix cell (no name or unit printed) [8]: 97 | IC50 [4]: 3.5 nM | competition matrix cell (no name or unit printed) [6]: 73 | competition matrix cell (no name or unit printed) [7]: 93

B11: anti-CD47 AlivaMab antibody 102 (antibody, IgG1, V domains shown)
VH: QVQLQESGPGLVKPSETLSLTCTVSGGSISNYYWSWIRQPPGKGLEWIGYIYYSGSTNYNPSLKSRVTISVDTSKNQFSLKLSSVTAADTAVYYCARKRDTFDIWGQGTMVTVSS
VL: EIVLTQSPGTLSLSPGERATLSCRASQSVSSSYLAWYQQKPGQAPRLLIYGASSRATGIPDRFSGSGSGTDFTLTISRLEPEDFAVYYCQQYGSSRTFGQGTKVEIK
notes: as for B1
Kd [3]: 0.32 nM | koff [3]: 0.00221 s⁻¹ | kon [3]: 6.9e+06 M⁻¹ s⁻¹ | IC50 [4]: 2.3 nM | Kd [5]: 0.32 nM | koff [5]: 0.00221 s⁻¹ | kon [5]: 6.9e+06 M⁻¹ s⁻¹

B12: anti-CD47 AlivaMab antibody 106 (antibody, IgG1, V domains shown)
VH: QVQLQGSGPGLVKPSETLSLTCTVSGGSINNYYWSWIRQPPGKGLEWIGYIYYSGSTNSNPSLKSRVTISVDTSKNQFSLKLNSVTAADTAVYYCARKRDAFDIWGQGTMVTVSS
VL: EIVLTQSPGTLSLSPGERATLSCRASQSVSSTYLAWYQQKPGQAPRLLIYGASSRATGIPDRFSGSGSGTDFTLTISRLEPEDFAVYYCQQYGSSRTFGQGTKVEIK
notes: as for B1
IC50 [4]: 2.9 nM

B13: anti-CD47 AlivaMab antibody 161 (antibody, IgG1, V domains shown)
VH: QVQLQESGPGLVKPSETLSLTCTVSGGSISSYYWSWIRQPPGKGLEWIGYIYYSGSTNYNPSLKSRVTISVDTSKNQFSLKLSSVTAADTAVYYCARSRYFDLWGRGTLVTVSS
VL: DIQMTQSPSAMSTSVGDRVTITCRASQGISNFLAWFQQKPGKVPKRLIYAASSLQSGVPSRFSGSGSGTEFTLTISSLQPEDFATYYCLQHNSYPYTFGQGTKLEIK
notes: Chimeric AlivaMab Mouse mAb from hybridoma: human V, CH1 and upper hinge, mouse middle hinge, CH2 and CH3, human kappa light chain; also called clone 161; mAb 161
competition matrix cell (no name or unit printed) [8]: 109 | competition matrix cell (no name or unit printed) [1]: 100 | competition matrix cell (no name or unit printed) [2]: 105 | competition matrix cell (no name or unit printed) [9]: 107 | competition matrix cell (no name or unit printed) [10]: 112 | IC50 [4]: 3 nM | competition matrix cell (no name or unit printed) [11]: 106 | competition matrix cell (no name or unit printed) [6]: 89

B14: anti-CD47 AlivaMab antibody 14 (antibody, IgG1, V domains shown)
VH: QVQLQESGPGLVKPSETLSLTCTVSGGSISSYYWSWIRQPPGKGLEWIGYIYYSGSTNYNPSLKSRVTISVDTSKNQFSLKLSSVTAADTAVYYCARKRGLDIWGQGTMVTVSS
VL: not shown
notes: Chimeric AlivaMab Mouse mAb from hybridoma: human V, CH1 and upper hinge, mouse middle hinge, CH2 and CH3, human kappa light chain; also called clone 14; mAb 14
IC50 [4]: 3.5 nM

B15: anti-CD47 AlivaMab antibody 143 (antibody, IgG1, V domains shown)
VH: QVQLQESGPGLVKPSETLSLTCTVSGGSINNYYWSWIRQPPGKGLEWIGYIYYSGSTNYNPSLRSRVTISVDTSKNQFSLKLSSVAAADTAVYYCARQKGMDVWGQGTTVTVSS
VL: DIQMTQSPSAMSASVGDRVTITCRASQGISNYLAWFQQKPGKVPKRLIYAASSLQSGVPSRFSGSGSGTEFTLTISSLQPEDFATYYCLQHNSYPPTFGQGTKVEIK
notes: Chimeric AlivaMab Mouse mAb from hybridoma: human V, CH1 and upper hinge, mouse middle hinge, CH2 and CH3, human kappa light chain; also called clone 143; mAb 143
IC50 [4]: 96 nM

B16: anti-CD47 AlivaMab antibody 85 (antibody, IgG1, V domains shown)
VH: QVQLQESGPGLVKASETLSLTCTVSGGSISGYYWSWIRQPAGKGLEWIGRIYNSGSTNYNPSLKSRVTMSVDTSKNQFSLKLSSVTAADTAVYYCARQTYLDYWGQGTLVTVSS
VL: DIQMTQSPSAMSASVGDRVTITCRASQGISIYLAWFQQKPGKVPKRLIYAASSLQSGVPSRFSGSGSGTEFTLTISSLQPEDFATYYCLQHNSYPLTFGGGTKVEIK
notes: Chimeric AlivaMab Mouse mAb from hybridoma: human V, CH1 and upper hinge, mouse middle hinge, CH2 and CH3, human kappa light chain; also called clone 85; mAb 85
competition matrix cell (no name or unit printed) [8]: 104 | competition matrix cell (no name or unit printed) [1]: 100 | competition matrix cell (no name or unit printed) [2]: 98 | competition matrix cell (no name or unit printed) [9]: 102 | competition matrix cell (no name or unit printed) [10]: 95 | IC50 [4]: 4.9 nM | competition matrix cell (no name or unit printed) [11]: 98 | competition matrix cell (no name or unit printed) [6]: 83
